Source: patent US20260069728A1, “MULTI-TARGETING COMPOUND AND USE THEREOF” (Chengdu Shetai Medical Technology Co., Ltd., priority 2023, published 2026)
*1 amine or outer side, *2 acyl side, *3 side chain or, on linkers, in order; H or OH if unused. Where a SMILES comes first, the peptide text is derived from it. Bridges are numbered along the chain shown (N, C = ends). [ ]: non-standard residue; d: D form. The star is where a group is joined. X1 = N#C[C@@H]1CC(F)(F)CN1C(=O)CNC(=O)c1ccnc2ccc(OCCCN3CCN(*)CC3)cc12; DOTA = O=C(O)CN1CCN(CC(=O)O)CCN(CC(=O)*)CCN(CC(=O)O)CC1; 2Nal = N[C@@H](Cc1ccc2ccccc2c1)C(=O)O; Cit = NC(=O)NCCC[C@H](N)C(=O)O; Suc = O=C(CCC(=O)[*:2])[*:1]; AEEA = NCCOCCOCC(=O)O

Assays:
[1] = Competitive experiment of radioligand against endogenous free amino acids (histidine, cysteine); format: physicochemical; conditions: 37° C., 2 hours
Protocol: To an EP tube containing 150 μL of PBS buffer, 150 μL of H2O, and 50 μL of ^68Ga-SDYD01 was added 50 μL of cysteine hydrochloride solution (10 mM) or histidine solution (10 mM). The mixture was vortexed and incubated at 37° C. for 2 hours, after which samples were taken for radio-HPLC analysis.
This study utilized different concentrations of histidine and cysteine solutions to investigate whether histidine (or cysteine) competes with ^68Ga-SDYD01 for metal chelation.
To an EP tube containing 150 μL of PBS buffer, 150 μL of H2O, and 50 μL of ^68Ga-SDYD02 was added 50 μL of cysteine hydrochloride solution (10 mM) or histidine solution (10 mM). The mixture was vortexed and incubated at 37° C. for 2 hours, after which samples were taken for radio-HPLC analysis.
This study utilized different concentrations of histidine and cysteine solutions to investigate whether histidine (or cysteine) competes with ^68Ga-SDYD02 for metal chelation.
To an EP tube containing 150 μL of PBS buffer, 150 μL of H2O, and 50 μL of ^68Ga-SDYD05 was added 50 μL of cysteine hydrochloride solution (10 mM) or histidine solution (10 mM). The mixture was vortexed and incubated at 37° C. for 2 hours, after which samples were taken for radio-HPLC analysis. This study utilized different concentrations of histidine and cysteine solutions to investigate whether histidine (or cysteine) competes with ^68Ga-SDYD05 for metal chelation.
To an EP tube containing 150 μL of PBS buffer, 150 μL of H2O, and 50 μL of ^68Ga-SDYD06 was added 50 μL of cysteine hydrochloride solution (10 mM) or histidine solution (10 mM). The mixture was vortexed and incubated at 37° C. for 2 hours, after which samples were taken for radio-HPLC analysis. This study utilized different concentrations of histidine and cysteine solutions to investigate whether histidine (or cysteine) competes with ^68Ga-SDYD06 for metal chelation.

[2] = tested on: SUM149PT human breast cancer cell line; assay: Cell uptake and inhibition assay, SUM149PT; format: cell-based
Protocol: The cell lines involved in the cell experiments in the test examples include: SUM149PT human breast cancer cell line, HUTU-80 human duodenal adenocarcinoma cell line, and U-118 MG human brain astrocytoma/glioblastoma cell line.
SUM149PT: Complete medium was formulated using DMEM high-glucose medium, 10% FBS, and a penicillin-streptomycin solution. The cells were cultured in a constant temperature incubator at 37° C. with 5% CO2. The culture medium was regularly replaced, and the cells were passaged. The culture medium was generally changed every 2 to 3 days. The growth of the tumor cells was observed daily under a microscope, including monitoring cell growth status, checking for adherence, examining cell morphology for any abnormalities, checking for contamination, and observing medium color for any abnormalities. Cells were passaged when they reached 80-90% confluence.
When cell confluence in the culture flask reached 80%, the cells were digested and centrifuged, and the supernatant was removed. An appropriate amount of medium was added to dilute so that each well contained 500 μL of medium for plating. After thorough mixing by pipetting, the cell suspension was seeded into a 24-well plate at a density of 5×10^5 cells per well. The plate was then placed into the incubator for continued growth. The cells were ready for cellular experiments when they reached 80% confluence.
(1) The cell uptake assay established four incubation time points: 15, 30, 60, and 120 minutes, respectively. For each time point, four groups were set up: non-inhibition group, a first single inhibition group (FAP single inhibition), a second single inhibition group (CXCR4/GRPR/αvβ3 single inhibition), and a dual inhibition group (FAP inhibitor+CXCR4/GRPR/αvβ3 inhibitor). Each group at each time point was set up with 3 triplicate wells.
(2) Cells were plated into a 24-well plate according to the cell plating procedure described above.
(3) The original culture medium was removed from the 24-well plate. Then, 400 μL of 100 mg/mL skimmed milk solution was added to each well for blocking for one hour. After removing the skimmed milk solution, each of the wells was washed three times by adding 400 μL of PBS solution. Subsequently, 146 μL of FBS-free medium was added to each well. Next, the non-inhibition group received 4 μL of cold PBS per well, while the first single inhibition group, the second single inhibition group, and the dual inhibition group received the following additions per well according to Table 3: 2 μL of non-radiolabeled first single inhibitor solution and 2 μL of cold PBS: 2 μL of non-radiolabeled second single inhibitor solution and 2 μL of cold PBS; 2 μL of non-radiolabeled first single inhibitor solution (10 mM) and 2 μL of non-radiolabeled second single inhibitor solution (10 mM). The plate was incubated at room temperature for one hour.
(4) The ^68Ga- and ^177Lu-labeled radioactive ligands were formulated by adding FBS-free medium to achieve a radioligand system concentration of 20 nM. Then, 50 μL of this radioligand system was added to each well. Each group was incubated according to the designated time points: 15, 30, 60, and 120 minutes.
(5) After the incubation was complete, the supernatant was removed, and the wells were washed three times with 400 μL of PBS solution. Then, 200 μL of 1 M NaOH solution was added to each well for cell lysis. […] Each well was then washed once with 400 μL of PBS solution, and this wash solution was also added to the corresponding radioimmunoassay tubes.
(6) The radioactivity in the cells was measured using a γ counter. A bar graph was plotted using GraphPad Prism software. The inhibition rate for each inhibition group was calculated as follows: Inhibition Rate (%)=(1−[Radioactive Count of the Inhibition Group]/[Radioactive Count of the Non-inhibition Group])×100%. […]

SMILES: N#C[C@@H]1CC(F)(F)CN1C(=O)CNC(=O)c1ccnc2ccc(OCCCN3CCN(C(=O)CCC(=O)N[C@@H](CCCCNC(=O)CN4CCN(CC(=O)O)CCN(CC(=O)O)CCN(CC(=O)O)CC4)C(=O)NCCOCCOCC(=O)NCCOCCOCC(=O)N[C@@H](CCCNC(=N)N)C(=O)N[C@@H](CCCNC(=N)N)C(=O)N[C@@H](Cc4ccc5ccccc5c4)C(=O)N[C@H]4CSSC[C@@H](C(=O)N[C@@H](CCCNC(=N)N)C(N)=O)NC(=O)[C@H](CCCNC(N)=O)NC(=O)[C@H](CCCNC(=N)N)NC(=O)[C@H](Cc5ccc(O)cc5)NC(=O)[C@@H]5CCCN5C(=O)[C@H](CCCCN)NC(=O)[C@H](CCCCN)NC(=O)[C@H](CCCNC(N)=O)NC(=O)[C@H](Cc5ccc(O)cc5)NC4=O)CC3)cc12 [^68Ga-SDYD01, metal not drawn] ({X1-Suc}-K(DOTA)[AEEA][AEEA]RR[2Nal]CY[Cit]KKPYR[Cit]CR-NH2; disulfide 7-16)
- competitive chelation in the presence of histidine and cysteine (in words) [1]: did not undergo competitive chelation
- radiochemical purity after incubation with cysteine ([1]; cysteine hydrochloride solution (10 mM)): 93%
- radiochemical purity after incubation with histidine ([1]; histidine solution (10 mM)): 93%
- cell uptake, comparison of non-inhibition, FAP single, CXCR4 single and dual inhibition groups (in words) ([2]; FAPI-04 and T140 as inhibitors): dual inhibition group exhibited the lowest uptake
- cell uptake over incubation time (in words) ([2]; non-inhibition group, 15-120 minutes): slowly increased and reached a plateau from 30 to 120 minutes
